In paper PMC7617670, “Activity Regulation of a Glutamine Amidotransferase Bienzyme Complex by Substrate-Induced Subunit Interface Expansion” (ACS catalysis, 2025):

B1: PabB, synthase subunit of aminodeoxychorismate synthase (ADCS) from Escherichia coli, wild type (enzyme)
chain: MKTLSPAVITLLWRQDAAEFYFSRLSHLPWAMLLHSGYADHPYSRFDIVVAEPICTLTTFGKETVVSESEKRTTTTDDPLQVLQQVLDRADIRPTHNEDLPFQGGALGLFGYDLGRRFESLPEIAEQDIVLPDMAVGIYDWALIVDHQRHTVSLLSHNDVNARRAWLESQQFSPQEDFTLTSDWQSNMTREQYGEKFRQVQEYLHSGDCYQVNLAQRFHATYSGDEWQAFLQLNQANRAPFSAFLRLEQGAILSLSPERFILCDNSEIQTRPIKGTLPRLPDPQEDSKQAVKLANSAKDRAENLMIVDLMRNDIGRVAVAGSVKVPELFVVEPFPAVHHLVSTITAQLPEQLHASDLLRAAFPGGSITGAPKVRAMEIIDELEPQRRNAWCGSIGYLSFCGNMDTSITIRTLTAINGQIFCSAGGGIVADSQEEAEYQETFDKVNRILKQLEK
B2: PabB variant bD308E (enzyme, Escherichia coli)
chain: MKTLSPAVITLLWRQDAAEFYFSRLSHLPWAMLLHSGYADHPYSRFDIVVAEPICTLTTFGKETVVSESEKRTTTTDDPLQVLQQVLDRADIRPTHNEDLPFQGGALGLFGYDLGRRFESLPEIAEQDIVLPDMAVGIYDWALIVDHQRHTVSLLSHNDVNARRAWLESQQFSPQEDFTLTSDWQSNMTREQYGEKFRQVQEYLHSGDCYQVNLAQRFHATYSGDEWQAFLQLNQANRAPFSAFLRLEQGAILSLSPERFILCDNSEIQTRPIKGTLPRLPDPQEDSKQAVKLANSAKDRAENLMIVELMRNDIGRVAVAGSVKVPELFVVEPFPAVHHLVSTITAQLPEQLHASDLLRAAFPGGSITGAPKVRAMEIIDELEPQRRNAWCGSIGYLSFCGNMDTSITIRTLTAINGQIFCSAGGGIVADSQEEAEYQETFDKVNRILKQLEK
B3: PabB variant bD308A (enzyme, Escherichia coli)
chain: MKTLSPAVITLLWRQDAAEFYFSRLSHLPWAMLLHSGYADHPYSRFDIVVAEPICTLTTFGKETVVSESEKRTTTTDDPLQVLQQVLDRADIRPTHNEDLPFQGGALGLFGYDLGRRFESLPEIAEQDIVLPDMAVGIYDWALIVDHQRHTVSLLSHNDVNARRAWLESQQFSPQEDFTLTSDWQSNMTREQYGEKFRQVQEYLHSGDCYQVNLAQRFHATYSGDEWQAFLQLNQANRAPFSAFLRLEQGAILSLSPERFILCDNSEIQTRPIKGTLPRLPDPQEDSKQAVKLANSAKDRAENLMIVALMRNDIGRVAVAGSVKVPELFVVEPFPAVHHLVSTITAQLPEQLHASDLLRAAFPGGSITGAPKVRAMEIIDELEPQRRNAWCGSIGYLSFCGNMDTSITIRTLTAINGQIFCSAGGGIVADSQEEAEYQETFDKVNRILKQLEK
B4: PabB variant bE119R (enzyme, Escherichia coli)
chain: MKTLSPAVITLLWRQDAAEFYFSRLSHLPWAMLLHSGYADHPYSRFDIVVAEPICTLTTFGKETVVSESEKRTTTTDDPLQVLQQVLDRADIRPTHNEDLPFQGGALGLFGYDLGRRFRSLPEIAEQDIVLPDMAVGIYDWALIVDHQRHTVSLLSHNDVNARRAWLESQQFSPQEDFTLTSDWQSNMTREQYGEKFRQVQEYLHSGDCYQVNLAQRFHATYSGDEWQAFLQLNQANRAPFSAFLRLEQGAILSLSPERFILCDNSEIQTRPIKGTLPRLPDPQEDSKQAVKLANSAKDRAENLMIVDLMRNDIGRVAVAGSVKVPELFVVEPFPAVHHLVSTITAQLPEQLHASDLLRAAFPGGSITGAPKVRAMEIIDELEPQRRNAWCGSIGYLSFCGNMDTSITIRTLTAINGQIFCSAGGGIVADSQEEAEYQETFDKVNRILKQLEK
B5: PabB variant bR311A (enzyme, Escherichia coli)
chain: MKTLSPAVITLLWRQDAAEFYFSRLSHLPWAMLLHSGYADHPYSRFDIVVAEPICTLTTFGKETVVSESEKRTTTTDDPLQVLQQVLDRADIRPTHNEDLPFQGGALGLFGYDLGRRFESLPEIAEQDIVLPDMAVGIYDWALIVDHQRHTVSLLSHNDVNARRAWLESQQFSPQEDFTLTSDWQSNMTREQYGEKFRQVQEYLHSGDCYQVNLAQRFHATYSGDEWQAFLQLNQANRAPFSAFLRLEQGAILSLSPERFILCDNSEIQTRPIKGTLPRLPDPQEDSKQAVKLANSAKDRAENLMIVDLMANDIGRVAVAGSVKVPELFVVEPFPAVHHLVSTITAQLPEQLHASDLLRAAFPGGSITGAPKVRAMEIIDELEPQRRNAWCGSIGYLSFCGNMDTSITIRTLTAINGQIFCSAGGGIVADSQEEAEYQETFDKVNRILKQLEK
B6: PabB variant bD308N (enzyme, Escherichia coli)
chain: MKTLSPAVITLLWRQDAAEFYFSRLSHLPWAMLLHSGYADHPYSRFDIVVAEPICTLTTFGKETVVSESEKRTTTTDDPLQVLQQVLDRADIRPTHNEDLPFQGGALGLFGYDLGRRFESLPEIAEQDIVLPDMAVGIYDWALIVDHQRHTVSLLSHNDVNARRAWLESQQFSPQEDFTLTSDWQSNMTREQYGEKFRQVQEYLHSGDCYQVNLAQRFHATYSGDEWQAFLQLNQANRAPFSAFLRLEQGAILSLSPERFILCDNSEIQTRPIKGTLPRLPDPQEDSKQAVKLANSAKDRAENLMIVNLMRNDIGRVAVAGSVKVPELFVVEPFPAVHHLVSTITAQLPEQLHASDLLRAAFPGGSITGAPKVRAMEIIDELEPQRRNAWCGSIGYLSFCGNMDTSITIRTLTAINGQIFCSAGGGIVADSQEEAEYQETFDKVNRILKQLEK
B7: PabA variant aC54A (enzyme, Escherichia coli)
chain: MILLIDNYDSFTWNLYQYFCELGADVLVKRNDALTLADIDALKPQKIVISPGPATPDEAGISLDVIRHYAGRLPILGVCLGHQAMAQAFGGKVVRAAKVMHGKTSPITHNGEGVFRGLANPLTVTRYHSLVVEPDSLPACFDVTAWSETREIMGIRHRQWDLEGVQFHPESILSEQGHQLLANFLHR
notes: PabA, glutaminase subunit of ADCS, E. coli; construct as m1 with one exchange; Made by QuikChange mutagenesis from the construct of m1; source: E. coli BL21-Gold (DE3), purified (Ni-IMAC, preparative gel filtration)
B8: PabA variant aC54G (enzyme, Escherichia coli)
chain: MILLIDNYDSFTWNLYQYFCELGADVLVKRNDALTLADIDALKPQKIVISPGPGTPDEAGISLDVIRHYAGRLPILGVCLGHQAMAQAFGGKVVRAAKVMHGKTSPITHNGEGVFRGLANPLTVTRYHSLVVEPDSLPACFDVTAWSETREIMGIRHRQWDLEGVQFHPESILSEQGHQLLANFLHR
notes: as for B7
B9: PabA variant aS171A (enzyme, Escherichia coli)
chain: MILLIDNYDSFTWNLYQYFCELGADVLVKRNDALTLADIDALKPQKIVISPGPCTPDEAGISLDVIRHYAGRLPILGVCLGHQAMAQAFGGKVVRAAKVMHGKTSPITHNGEGVFRGLANPLTVTRYHSLVVEPDSLPACFDVTAWSETREIMGIRHRQWDLEGVQFHPEAILSEQGHQLLANFLHR
notes: as for B7
B10: PabA variant aP53A (enzyme, Escherichia coli)
chain: MILLIDNYDSFTWNLYQYFCELGADVLVKRNDALTLADIDALKPQKIVISPGACTPDEAGISLDVIRHYAGRLPILGVCLGHQAMAQAFGGKVVRAAKVMHGKTSPITHNGEGVFRGLANPLTVTRYHSLVVEPDSLPACFDVTAWSETREIMGIRHRQWDLEGVQFHPESILSEQGHQLLANFLHR
notes: as for B7
B11: PabA variant aR30E (enzyme, Escherichia coli)
chain: MILLIDNYDSFTWNLYQYFCELGADVLVKENDALTLADIDALKPQKIVISPGPCTPDEAGISLDVIRHYAGRLPILGVCLGHQAMAQAFGGKVVRAAKVMHGKTSPITHNGEGVFRGLANPLTVTRYHSLVVEPDSLPACFDVTAWSETREIMGIRHRQWDLEGVQFHPESILSEQGHQLLANFLHR
notes: as for B7
B12: PabA variant aH128A (enzyme, Escherichia coli)
chain: MILLIDNYDSFTWNLYQYFCELGADVLVKRNDALTLADIDALKPQKIVISPGPCTPDEAGISLDVIRHYAGRLPILGVCLGHQAMAQAFGGKVVRAAKVMHGKTSPITHNGEGVFRGLANPLTVTRYASLVVEPDSLPACFDVTAWSETREIMGIRHRQWDLEGVQFHPESILSEQGHQLLANFLHR
notes: as for B7
B13: PabA double variant [Y127A, S171A] (enzyme, Escherichia coli)
chain: MILLIDNYDSFTWNLYQYFCELGADVLVKRNDALTLADIDALKPQKIVISPGPCTPDEAGISLDVIRHYAGRLPILGVCLGHQAMAQAFGGKVVRAAKVMHGKTSPITHNGEGVFRGLANPLTVTRAHSLVVEPDSLPACFDVTAWSETREIMGIRHRQWDLEGVQFHPEAILSEQGHQLLANFLHR
notes: PabA, glutaminase subunit of ADCS, E. coli; construct as m1 with two exchanges; Made by mutagenesis from the construct of m1; source: E. coli BL21-Gold (DE3), purified (Ni-IMAC, preparative gel filtration)

These binders were tested against T1, PabA, glutaminase subunit of aminodeoxychorismate synthase (ADCS) from Escherichia coli, wild type (Escherichia coli, UniProt P00903 1-187) (assay: cell-based or functional assay). Conditions: not given.
T1 sequence: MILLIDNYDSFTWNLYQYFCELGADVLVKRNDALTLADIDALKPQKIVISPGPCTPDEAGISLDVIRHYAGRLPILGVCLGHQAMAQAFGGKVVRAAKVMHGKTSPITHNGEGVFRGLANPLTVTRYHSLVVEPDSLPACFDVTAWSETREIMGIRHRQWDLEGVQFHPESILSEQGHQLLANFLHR

Point of comparison: B4, “glutaminase catalytic efficiency kcat/KM^Gln (coupled GDH assay, 200 μM Cho, PabB in fourfold excess)” value 60 M⁻¹ s⁻¹. Against it:
- B1 — 18-fold higher, 1090 M⁻¹ s⁻¹
- B2 — 26-fold higher, 1540 M⁻¹ s⁻¹
- B3 — 4.6-fold lower, 13 M⁻¹ s⁻¹
- B5 — 1.7-fold higher, 100 M⁻¹ s⁻¹
- B6 — 1.7-fold lower, 36 M⁻¹ s⁻¹

Each binder was assayed against B11 (assay: cell-based or functional assay). Conditions: not given.

In the case of B1, the “glutaminase catalytic efficiency kcat/KM^Gln (coupled GDH assay, 200 μM Cho, PabB in fourfold excess)” value is reported as 79 M⁻¹ s⁻¹.

What follows are binders tested against B1 (assay: ITC; 250 μM PabB titrated into 25 μM PabA in the cell; 25 °C; 50 mM Tris/HCl pH 7.5, 50 mM KCl, 5 mM MgCl2; without Cho and Gln; one set of sites). Conditions: both partners purified.

Point of comparison: B7, Kd 180 nM. Against it:
- B8 — 3-fold lower, 60 nM
- B9 — 5.1-fold higher, 920 nM
- B10 — the same, 180 nM
- B11 — 2.1-fold higher, 380 nM
- B12 — 2.1-fold higher, 370 nM

What follows are binders tested against B1 (assay: SEC; analytical SEC with 5 mM L-Gln in the buffer; PabA and PabB mixed equimolar, 50 μM each; Superdex 200 increase 10/300 GL; 50 mM Tris/HCl pH 7.5, 50 mM KCl, 5 mM MgCl2, 2 mM DTT; 25 °C; without Cho). Conditions: both partners purified.

B13: binds.
